Results on one molecule are retold here after paper PMC6220978, “Induced conformational changes activate the peptidoglycan synthase PBP1B” (Molecular Microbiology, 2018).

Test in all cases: SPR; PBP1B versions immobilised to the chip surface; LpoB injected from 19.5 nM to 10 μM; apparent KD by non-linear regression, at least three independent experiments
Holding throughout (settings): both partners purified
Background: In SPR one partner is held on a chip, and binding of the other changes the refractive index at the surface.

The target of one assay is T1, PBP1B N112G (E. coli, UniProt P02919 46-844, N112G).
T1 construct: PBP1B, E. coli, residues 46-844, made by mutagenesis of pDML924; source: E. coli BL21(DE3), purified (membrane extract, HisTrap, thrombin, HiTrap SP ion exchange)
T1 sequence (looked up): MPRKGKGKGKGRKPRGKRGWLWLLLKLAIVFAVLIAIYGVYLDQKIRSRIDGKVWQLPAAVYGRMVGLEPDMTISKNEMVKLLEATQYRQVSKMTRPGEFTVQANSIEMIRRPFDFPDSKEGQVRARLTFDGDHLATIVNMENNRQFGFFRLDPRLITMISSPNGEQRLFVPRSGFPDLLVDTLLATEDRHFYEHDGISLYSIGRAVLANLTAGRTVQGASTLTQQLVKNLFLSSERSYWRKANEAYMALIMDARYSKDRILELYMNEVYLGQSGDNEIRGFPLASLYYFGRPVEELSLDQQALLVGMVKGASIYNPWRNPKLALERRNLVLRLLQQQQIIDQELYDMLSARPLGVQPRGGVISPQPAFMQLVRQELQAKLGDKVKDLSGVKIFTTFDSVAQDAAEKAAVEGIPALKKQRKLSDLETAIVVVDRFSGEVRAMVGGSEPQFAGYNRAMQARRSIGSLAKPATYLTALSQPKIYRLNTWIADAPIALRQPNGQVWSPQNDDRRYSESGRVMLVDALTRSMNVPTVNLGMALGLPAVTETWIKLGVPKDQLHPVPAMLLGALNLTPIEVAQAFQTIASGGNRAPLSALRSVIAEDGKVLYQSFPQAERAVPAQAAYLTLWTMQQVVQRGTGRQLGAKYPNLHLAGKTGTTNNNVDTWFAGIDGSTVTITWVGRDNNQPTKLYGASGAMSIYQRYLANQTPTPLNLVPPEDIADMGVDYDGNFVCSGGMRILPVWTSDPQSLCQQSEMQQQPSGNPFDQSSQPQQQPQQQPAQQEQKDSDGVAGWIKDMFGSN

The target of the next assay is T2, PBP1B R109G (E. coli, UniProt P02919 46-844, R109G).
T2 construct: PBP1B, E. coli, residues 46-844, made by mutagenesis of pDML924; source: E. coli BL21(DE3), purified (membrane extract, HisTrap, thrombin, HiTrap SP ion exchange)
T2 sequence (looked up): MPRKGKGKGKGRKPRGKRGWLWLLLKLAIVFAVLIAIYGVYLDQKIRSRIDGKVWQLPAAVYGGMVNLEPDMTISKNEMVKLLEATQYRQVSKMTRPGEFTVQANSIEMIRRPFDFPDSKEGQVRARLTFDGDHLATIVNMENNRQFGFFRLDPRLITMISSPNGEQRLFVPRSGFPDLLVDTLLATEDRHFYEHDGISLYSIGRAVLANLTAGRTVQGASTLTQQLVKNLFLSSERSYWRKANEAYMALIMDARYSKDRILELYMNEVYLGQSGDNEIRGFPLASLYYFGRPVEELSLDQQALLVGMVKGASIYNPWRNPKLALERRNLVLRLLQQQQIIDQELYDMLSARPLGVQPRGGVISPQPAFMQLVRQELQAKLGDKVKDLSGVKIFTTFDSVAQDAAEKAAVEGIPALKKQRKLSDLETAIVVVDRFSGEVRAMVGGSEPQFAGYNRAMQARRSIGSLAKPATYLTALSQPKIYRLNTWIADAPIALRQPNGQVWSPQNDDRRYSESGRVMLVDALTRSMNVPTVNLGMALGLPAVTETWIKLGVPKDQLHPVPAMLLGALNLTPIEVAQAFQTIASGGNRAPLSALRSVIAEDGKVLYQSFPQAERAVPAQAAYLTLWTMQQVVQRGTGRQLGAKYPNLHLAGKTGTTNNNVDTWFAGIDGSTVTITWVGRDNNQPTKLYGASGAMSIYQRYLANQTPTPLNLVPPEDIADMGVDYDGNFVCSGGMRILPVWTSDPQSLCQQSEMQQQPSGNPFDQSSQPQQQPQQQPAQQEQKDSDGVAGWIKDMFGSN

A further assay addresses T3, PBP1B^Δ158–160 (E. coli, UniProt P02919 46-844, Δ158–160).
T3 construct: PBP1B, E. coli, residues 46-844 with residues 158-160 of Loop 1 removed, made by mutagenesis of pDML924; also called Loop 1 truncation; source: E. coli BL21(DE3), purified (membrane extract, HisTrap, thrombin, HiTrap SP ion exchange)
T3 sequence (looked up): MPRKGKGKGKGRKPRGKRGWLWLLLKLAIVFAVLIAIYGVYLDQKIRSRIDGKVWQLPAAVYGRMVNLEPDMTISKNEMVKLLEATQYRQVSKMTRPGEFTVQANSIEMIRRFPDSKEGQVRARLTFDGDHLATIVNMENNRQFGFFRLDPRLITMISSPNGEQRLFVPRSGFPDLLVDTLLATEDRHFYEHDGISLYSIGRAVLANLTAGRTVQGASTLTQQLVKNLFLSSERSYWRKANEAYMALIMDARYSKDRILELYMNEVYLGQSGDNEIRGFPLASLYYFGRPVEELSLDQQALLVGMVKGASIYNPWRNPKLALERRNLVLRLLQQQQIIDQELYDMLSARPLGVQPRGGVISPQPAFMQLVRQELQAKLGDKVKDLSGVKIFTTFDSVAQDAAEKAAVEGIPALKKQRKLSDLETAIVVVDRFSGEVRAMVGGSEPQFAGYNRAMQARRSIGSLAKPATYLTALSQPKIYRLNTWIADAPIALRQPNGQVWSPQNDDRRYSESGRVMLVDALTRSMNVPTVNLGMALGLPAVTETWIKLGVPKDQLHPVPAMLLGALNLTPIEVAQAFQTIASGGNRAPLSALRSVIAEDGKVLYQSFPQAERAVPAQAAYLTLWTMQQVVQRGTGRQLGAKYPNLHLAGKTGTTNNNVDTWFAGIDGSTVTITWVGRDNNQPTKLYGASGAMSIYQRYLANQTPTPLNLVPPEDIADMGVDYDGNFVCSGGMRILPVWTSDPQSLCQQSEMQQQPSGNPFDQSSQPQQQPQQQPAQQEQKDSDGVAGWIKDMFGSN

B1: LpoB (natural protein, E. coli)
chain: VGQREPAPVEEVKPAPEQPAEPQQPVPTVPSVPTIPQQPGPIEHEDQTAPPAPHIRHYDWNGAMQPMVSKMLGADGVTAGSVLLVDSVNNRTNGSLNAAEATETLRNALANNGKFTLVSAQQLSMAKQQLGLSPQDSLGTRSKAIGIARNVGAHYVLYSSASGNVNAPTLQMQLMLVQTGEIIWSGKGAVSQQ
notes: LpoB, E. coli; also called lipoprotein LpoB; source: E. coli BL21(DE3), purified (HisTrap, Superdex 200), as in Egan et al. 2014
As to B1, the Kd in the assay with PBP1B N112G turned out to be 0.356 µM; with PBP1B R109G it was 3.09 µM; with PBP1B^Δ158–160 it was 1.9 µM.
